Experimental findings from PMC12846072 are described below.

The target of the assay is VP2 capsid protein of Epizootic hemorrhagic disease virus serotype 8, wild type (Epizootic hemorrhagic disease virus serotype 8 (EHDV-8)) (UniProt Q00273). The assay can be described thus: SEC; FPLC-SEC on Superose 6 16/300 in PBS 1X pH 7.4, calibrated with the gel filtration HMW calibration kit; oligomeric state from retention time. (In general: SEC sorts molecules by how far they enter the pores of the column.)

In turn, “VP2 capsid protein of Epizootic hemorrhagic disease virus serotype 8, wild type (from UniProt Q00273 1-971) (natural protein)” had a stoichiometry N of 3.

By stoichiometry N is commonly meant the number of molecules, sites or subunits per partner or assembly.
